Assay results as given in publication PMC3088644.

Target: mitochondrial ATP synthase (mouse (endogenous in MEFs)) (UniProt Q03265)
Assay: native gel or EMSA

“mitochondrial ATP synthase (from UniProt Q03265 44-553) (complex)” was tested, and the stoichiometry N was 2.
